# Assays:
# OCCCCO = assay: purified protein, by the assay type; conditions: Gly-NaOH pH 9.5, 30° C.
# [1] = substrate: OCCCCCO; assay: Kinetic analysis of wild-type KpADH toward diol co-substrates; type: biochemical; conditions: other: wild-type KpADH, 1 mM NADP+, Gly-NaOH pH 9.5, 30° C.
# Description: (§1) Changes in absorbance at 340 nm are measured.
# (§2) The enzyme activity is calculated using the following formula: Enzyme activity (U)=EW×V×10^3/(6220×I);
# (§3) In the formula, EW is the change in absorbance at 340 nm in 1 min; V is the volume of the reaction solution in mL; 6220 is the molar extinction coefficient of NAD(P)H in L/(mol·cm); I is optical distance in cm.
# (§4) One unit of activity (U) corresponds to the amount of enzyme required for the catalytic oxidation of 1 μmol NADP^+ per minute under the above conditions.
# (§5) Kinetic measurement is conducted according to the enzyme activity assay, with 10 μL of alcohol substrates of different concentrations, 1 mM NADP^+, 10 μL of enzymes of appropriate concentrations, 170 μL of glycine-sodium hydroxide buffer at pH 9.5, with each sample in triplicate. […] The calculation formulas are as follows: […]
# (§6) The Vmax and Km values can be calculated from the intercepts of the double reciprocal plot on the X and Y axes;
# (§7) The kcat value can be further calculated according to the formula.
# (§8) The activity of KpADH under different substrate concentrations and cofactor concentrations was measured, and a double reciprocal plot was made according to the reciprocals of the activity and substrate concentration. The kinetic parameters were calculated.
# (§9) The activity of KpADH under different substrate concentrations and cofactor concentrations was measured, and a double reciprocal plots were made according to the reciprocals of the activity and substrate concentration. The kinetic parameters were calculated.
# [2] = substrate: OCCCCO; assay: purified protein, by the assay type; conditions: other: wild-type KpADH, 1 mM NADP+, Gly-NaOH pH 9.5, 30° C.
# [3] = substrate: OCCCCCCO; assay: Kinetic analysis of KpADH mutant M1 toward diol co-substrates; type: biochemical; conditions: other: mutant M1, 1 mM NADP+, Gly-NaOH pH 9.5, 30° C.
# Description: (§10) M1 is obtained by mutating valine at position 84 into isoleucine in alcohol dehydrogenase having an original amino acid sequence as set forth in SEQ ID No. 1;
# as §1, §2, §3, §4, §5, §6, §7, §8, §9
# [4] = substrate: OCCCCCO; assay: as above; type: biochemical; conditions: other: mutant M1, 1 mM NADP+, Gly-NaOH pH 9.5, 30° C.
# Description: as §10, §1, §2, §3, §4, §5, §6, §7, §8, §9
# [5] = substrate: OCCCCCCO; assay: Kinetic analysis of KpADH mutant M5 toward diol co-substrates; type: biochemical; conditions: other: mutant M5, 1 mM NADP+, Gly-NaOH pH 9.5, 30° C.
# Description: (§11) the M5 is obtained by mutating valine at position 84 into isoleucine and tyrosine at position 127 into methionine in alcohol dehydrogenase having an original amino acid sequence as set forth in SEQ ID No. 1.
# as §1, §2, §3, §4, §5, §6, §7, §8, §9
# [6] = substrate: OCCCCCO; assay: as above; type: biochemical; conditions: other: mutant M5, 1 mM NADP+, Gly-NaOH pH 9.5, 30° C.
# Description: as §11, §1, §2, §3, §4, §5, §6, §7, §8, §9
# [7] = substrate: OCCCCCCO; assay: Kinetic analysis of KpADH mutant M2 toward diol co-substrates; type: biochemical; conditions: other: mutant M2, 1 mM NADP+, Gly-NaOH pH 9.5, 30° C.
# Description: (§12) M2 is obtained by mutating tyrosine at position 127 into cysteine in alcohol dehydrogenase having an original amino acid sequence as set forth in SEQ ID No. 1;
# as §1, §2, §3, §4, §5, §6, §7, §8, §9
# [8] = substrate: OCCCCCO; assay: as above; type: biochemical; conditions: other: mutant M2, 1 mM NADP+, Gly-NaOH pH 9.5, 30° C.
# Description: as §12, §1, §2, §3, §4, §5, §6, §7, §8, §9
# [9] = substrate: OCCCCCCO; assay: Kinetic analysis of KpADH mutant M3 toward diol co-substrates; type: biochemical; conditions: other: mutant M3, 1 mM NADP+, Gly-NaOH pH 9.5, 30° C.
# Description: (§13) M3 is obtained by mutating tyrosine at position 127 into methionine in alcohol dehydrogenase having an original amino acid sequence as set forth in SEQ ID No. 1;
# as §1, §2, §3, §4, §5, §6, §7, §8, §9
# [10] = substrate: OCCCCCO; assay: as above; type: biochemical; conditions: other: mutant M3, 1 mM NADP+, Gly-NaOH pH 9.5, 30° C.
# Description: as §13, §1, §2, §3, §4, §5, §6, §7, §8, §9
# [11] = substrate: OCCCCCCO; assay: Kinetic analysis of KpADH mutant M4 toward diol co-substrates; type: biochemical; conditions: other: mutant M4, 1 mM NADP+, Gly-NaOH pH 9.5, 30° C.
# Description: (§14) M4 is obtained by mutating valine at position 84 into isoleucine and tyrosine at position 127 into cysteine in alcohol dehydrogenase having an original amino acid sequence as set forth in SEQ ID No. 1;
# as §1, §2, §3, §4, §5, §6, §7, §8, §9
# [12] = substrate: OCCCCCO; assay: as above; type: biochemical; conditions: other: mutant M4, 1 mM NADP+, Gly-NaOH pH 9.5, 30° C.
# Description: as §14, §1, §2, §3, §4, §5, §6, §7, §8, §9
molecule,measurement,setting,value
alcohol dehydrogenase KpADH mutant M3 (Y127M; parent SEQ ID No. 1) (Vanderwaltozyma polyspora DSM 70294; Y127M),Km,"OCCCCO; other: mutant M3, 1 mM NADP+",12.1 ± 0.9 mM
same,kcat,"OCCCCO; other: mutant M3, 1 mM NADP+",0.28 s⁻¹
same,kcat/Km,"OCCCCO; other: mutant M3, 1 mM NADP+",23.2 M⁻¹ s⁻¹
alcohol dehydrogenase KpADH mutant M5 (V84I/Y127M; parent SEQ ID No. 1) (Vanderwaltozyma polyspora DSM 70294; V84I/Y127M),Km,"OCCCCO; other: mutant M5, 1 mM NADP+",11.3 ± 0.8 mM
same,kcat,"OCCCCO; other: mutant M5, 1 mM NADP+",0.378 s⁻¹
same,kcat/Km,"OCCCCO; other: mutant M5, 1 mM NADP+",33.5 M⁻¹ s⁻¹
alcohol dehydrogenase KpADH mutant M4 (V84I/Y127C; parent SEQ ID No. 1) (Vanderwaltozyma polyspora DSM 70294; V84I/Y127C),Km,"OCCCCO; other: mutant M4, 1 mM NADP+",30.4 ± 1.3 mM
same,kcat,"OCCCCO; other: mutant M4, 1 mM NADP+",0.652 s⁻¹
same,kcat/Km,"OCCCCO; other: mutant M4, 1 mM NADP+",21.4 M⁻¹ s⁻¹
alcohol dehydrogenase KpADH mutant M2 (Y127C; parent SEQ ID No. 1) (Vanderwaltozyma polyspora DSM 70294; Y127C),Km,"OCCCCO; other: mutant M2, 1 mM NADP+",38.1 ± 1.9 mM
same,kcat,"OCCCCO; other: mutant M2, 1 mM NADP+",0.463 s⁻¹
same,kcat/Km,"OCCCCO; other: mutant M2, 1 mM NADP+",12.2 M⁻¹ s⁻¹
"alcohol dehydrogenase KpADH, wild type, SEQ ID No. 1 (Vanderwaltozyma polyspora DSM 70294) (protein) MSVLISGASGYIAKHIVRVLLEQNYKVIGTVRSQDKADKLLKQYNNPNLSYEIVPEIANLDAFDDIFKKHGKEIKYVIHAASPVNFGAKDLEKDLVIPAINGTKNMFEAIKKYAPDTVERVVMTASYASIMTPHRQNDPTLTLDEETWNPVTEENAYENVFTAYCASKTFAEKEAWKFVKENSDAVKFKLTTIHPSFVFGPQNFDEDVTKKLNETCEIINGLLHAPFDTKVEKTHFSQFIDVRDVAKTHVLGFQKDELINQRLLLCNGAFSQQDIVNVFNEDFPELKGQFPPEDKDTDLNKGVTGCKIDNEKTKKLLAFEFTPFHKTIHDTVYQILHKEGRV",Km,[1],74.4 ± 2.2 mM
same,kcat,[1],0.928 ± 0.0167 s⁻¹
same,kcat/Km,[1],12.5 M⁻¹ s⁻¹
same,Km,[2],75.6 ± 0.4 mM
same,kcat,[2],0.173 s⁻¹
same,kcat/Km,[2],2.28 M⁻¹ s⁻¹
alcohol dehydrogenase KpADH mutant M1 (V84I; parent SEQ ID No. 1) (Vanderwaltozyma polyspora DSM 70294; V84I) (protein) MSVLISGASGYIAKHIVRVLLEQNYKVIGTVRSQDKADKLLKQYNNPNLSYEIVPEIANLDAFDDIFKKHGKEIKYVIHAASPINFGAKDLEKDLVIPAINGTKNMFEAIKKYAPDTVERVVMTASYASIMTPHRQNDPTLTLDEETWNPVTEENAYENVFTAYCASKTFAEKEAWKFVKENSDAVKFKLTTIHPSFVFGPQNFDEDVTKKLNETCEIINGLLHAPFDTKVEKTHFSQFIDVRDVAKTHVLGFQKDELINQRLLLCNGAFSQQDIVNVFNEDFPELKGQFPPEDKDTDLNKGVTGCKIDNEKTKKLLAFEFTPFHKTIHDTVYQILHKEGRV,Km,[3],12.3 ± 0.7 mM
same,kcat,[3],1.08 ± 0.0283 s⁻¹
same,kcat/Km,[3],87.53 M⁻¹ s⁻¹
same,Km,[4],42.5 ± 1.5 mM
same,kcat,[4],0.852 ± 0.013 s⁻¹
same,kcat/Km,[4],20.03 M⁻¹ s⁻¹
alcohol dehydrogenase KpADH mutant M5 (V84I/Y127M; parent SEQ ID No. 1) (Vanderwaltozyma polyspora DSM 70294; V84I/Y127M) (protein) MSVLISGASGYIAKHIVRVLLEQNYKVIGTVRSQDKADKLLKQYNNPNLSYEIVPEIANLDAFDDIFKKHGKEIKYVIHAASPINFGAKDLEKDLVIPAINGTKNMFEAIKKYAPDTVERVVMTASMASIMTPHRQNDPTLTLDEETWNPVTEENAYENVFTAYCASKTFAEKEAWKFVKENSDAVKFKLTTIHPSFVFGPQNFDEDVTKKLNETCEIINGLLHAPFDTKVEKTHFSQFIDVRDVAKTHVLGFQKDELINQRLLLCNGAFSQQDIVNVFNEDFPELKGQFPPEDKDTDLNKGVTGCKIDNEKTKKLLAFEFTPFHKTIHDTVYQILHKEGRV,Km,[5],6.52 ± 1.0 mM
same,kcat,[5],1.25 ± 0.035 s⁻¹
same,kcat/Km,[5],200.53 M⁻¹ s⁻¹
same,Km,[6],8.21 ± 0.22 mM
same,kcat,[6],0.322 ± 0.015 s⁻¹
same,kcat/Km,[6],39.22 M⁻¹ s⁻¹
alcohol dehydrogenase KpADH mutant M2 (Y127C; parent SEQ ID No. 1) (Vanderwaltozyma polyspora DSM 70294; Y127C) (protein) MSVLISGASGYIAKHIVRVLLEQNYKVIGTVRSQDKADKLLKQYNNPNLSYEIVPEIANLDAFDDIFKKHGKEIKYVIHAASPVNFGAKDLEKDLVIPAINGTKNMFEAIKKYAPDTVERVVMTASCASIMTPHRQNDPTLTLDEETWNPVTEENAYENVFTAYCASKTFAEKEAWKFVKENSDAVKFKLTTIHPSFVFGPQNFDEDVTKKLNETCEIINGLLHAPFDTKVEKTHFSQFIDVRDVAKTHVLGFQKDELINQRLLLCNGAFSQQDIVNVFNEDFPELKGQFPPEDKDTDLNKGVTGCKIDNEKTKKLLAFEFTPFHKTIHDTVYQILHKEGRV,Km,[7],31.8 ± 1.7 mM
same,kcat,[7],0.603 ± 0.0367 s⁻¹
same,kcat/Km,[7],18.97 M⁻¹ s⁻¹
same,Km,[8],63.5 ± 0.1 mM
same,kcat,[8],0.418 ± 0.015 s⁻¹
same,kcat/Km,[8],6.6 M⁻¹ s⁻¹
alcohol dehydrogenase KpADH mutant M3 (Y127M; parent SEQ ID No. 1) (Vanderwaltozyma polyspora DSM 70294; Y127M) (protein) MSVLISGASGYIAKHIVRVLLEQNYKVIGTVRSQDKADKLLKQYNNPNLSYEIVPEIANLDAFDDIFKKHGKEIKYVIHAASPVNFGAKDLEKDLVIPAINGTKNMFEAIKKYAPDTVERVVMTASMASIMTPHRQNDPTLTLDEETWNPVTEENAYENVFTAYCASKTFAEKEAWKFVKENSDAVKFKLTTIHPSFVFGPQNFDEDVTKKLNETCEIINGLLHAPFDTKVEKTHFSQFIDVRDVAKTHVLGFQKDELINQRLLLCNGAFSQQDIVNVFNEDFPELKGQFPPEDKDTDLNKGVTGCKIDNEKTKKLLAFEFTPFHKTIHDTVYQILHKEGRV,Km,[9],6.48 ± 0.45 mM
same,kcat,[9],0.658 ± 0.0317 s⁻¹
same,kcat/Km,[9],101.6 M⁻¹ s⁻¹
same,Km,[10],14.3 ± 0.9 mM
same,kcat,[10],0.777 ± 0.0283 s⁻¹
same,kcat/Km,[10],54.48 M⁻¹ s⁻¹
alcohol dehydrogenase KpADH mutant M4 (V84I/Y127C; parent SEQ ID No. 1) (Vanderwaltozyma polyspora DSM 70294; V84I/Y127C) (protein) MSVLISGASGYIAKHIVRVLLEQNYKVIGTVRSQDKADKLLKQYNNPNLSYEIVPEIANLDAFDDIFKKHGKEIKYVIHAASPINFGAKDLEKDLVIPAINGTKNMFEAIKKYAPDTVERVVMTASCASIMTPHRQNDPTLTLDEETWNPVTEENAYENVFTAYCASKTFAEKEAWKFVKENSDAVKFKLTTIHPSFVFGPQNFDEDVTKKLNETCEIINGLLHAPFDTKVEKTHFSQFIDVRDVAKTHVLGFQKDELINQRLLLCNGAFSQQDIVNVFNEDFPELKGQFPPEDKDTDLNKGVTGCKIDNEKTKKLLAFEFTPFHKTIHDTVYQILHKEGRV,Km,[11],12.9 ± 1.3 mM
same,kcat,[11],1.64 ± 0.0417 s⁻¹
same,kcat/Km,[11],127.2 M⁻¹ s⁻¹
same,Km,[12],16.3 ± 0.8 mM
same,kcat,[12],0.413 ± 0.0183 s⁻¹
same,kcat/Km,[12],25.35 M⁻¹ s⁻¹
